Non-standard residues stand in square brackets, D forms with d. No end group written: not given here.
Key:
Format in all cases: binding, influenza A/Udorn/307/1972 (H3N2)
NS1A ED [1] = target: T1, NS1A ED (Influenza A virus, UniProt P03495); assay: Dissociation constant for homodimerization of NS1A ED (dimer-monomer equilibrium); conditions: low salt pH 8 buffer
T1 construct: made in house; host or cells: Escherichia coli BL21(DE3)-Gold, pET21_NESG vector

NS1A ED [2] = target: T1, NS1A ED; assay: 1D 19F NMR assay of 5FW-labeled NS1A ED with designed peptide
Source text: In one exemplary embodiment, the candidate compound is a D-peptide having a sequence dN-Y-F-Y-S-L-F-dQ-G (see FIG. 14). The peptide has the ability to bind NS1A at the site normally used to sequester CPSF30. This same site on NS1A is also responsible for cooperative homodimerization interactions that contribute to an alternative cooperative mechanism by which ED:ED domain interactions contribute to the free energy for binding dsRNA by NS1A.
One-dimensional (1D) ^19F NMR spectroscopy was performed locked and at 20° C. on a Varian INOVA 500 MHz spectrometer equipped with a room temperature 5-mm ^1H/^19F switchable probe at a frequency of 470.18 MHz. All ^19F NMR spectra were acquired using VNMRJ 2.1B and referenced to external neat trichlorofluoromethane, CFCl3. Typical 1D ^19F NMR acquisition parameters were as follows: a 20,000 Hz sweep width (42.5 ppm), a 0.35 s acquisition time, a 5 s relaxation delay time, and a 5.0 μs 90° pulse length.
^19F NMR is an ideal assay for characterizing binding and inhibition of the NS1A protein. Using 1D ^19F NMR, it was possible to identify the binding location of a designed peptide according to its proximity to the nearest ^19F labeled Trp amino acids (see FIG. 16A vs. FIG. 16B).

NS1A ED [3] = target: T1, NS1A ED; conditions: 200 uM ED, 0, 50, 100, 200, 300 uM test peptide

T1 sequence (P03495 85-215): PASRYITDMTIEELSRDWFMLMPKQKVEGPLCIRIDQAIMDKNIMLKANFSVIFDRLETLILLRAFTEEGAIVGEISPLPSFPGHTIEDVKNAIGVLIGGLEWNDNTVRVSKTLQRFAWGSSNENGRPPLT

Substance | Kd (NS1A ED [1]) [µM] | 19F chemical shift change of the Trp102 and Trp203 resonances (NS1A ED [2]; Trp102 and Trp203, listed as dAsn-Tyr-Phe-Tyr-Ser-Leu-Phe-dGln-Gly) | 19F chemical shift change of the Trp102 and Trp203 resonances (NS1A ED [2]; Trp102 and Trp203, listed as dN-Y-F-Y-S-L-F-dQ-G) | 19F chemical shift change of the Trp187 resonance (NS1A ED [2]; Trp187, listed as dAsn-Tyr-Phe-Tyr-Ser-Leu-Phe-dGln-Gly) | 19F chemical shift change of the Trp187 resonance (NS1A ED [2]; Trp187, listed as dN-Y-F-Y-S-L-F-dQ-G) | exchange regime at the binding site (15N-1H HSQC) (NS1A ED [3]; binding site) | exchange regime at other residues of the ED (15N-1H HSQC) (NS1A ED [3]; other residues of the ED) | exchange regime of residue W187 (15N-1H HSQC) (NS1A ED [3]; residue W187)
5fW NS1A ED: NS1A effector domain biosynthetically labeled with 5-fluoro-tryptophan | 7 ± 5 | – | – | – | – | – | – | –
dAsn-Tyr-Phe-Tyr-Ser-Leu-Phe-dGln-Gly ([dN]YFYSLF[dQ]G) [test peptide, designed D-amino acid capped peptide based on the CPSF30 helix …] | – | no significant impact | no chemical shift perturbations | strong ^19F chemical shift change | strong chemical shift perturbations | slow-exchange, indicative of strong binding | fast-exchange, or weak binding | slow-exchange indicative of tight binding
